Like-named read-outs stand apart in the source and are kept apart here.
What was measured:
[1] = parameters: species or system human
Method: The accumulated source activity for each animal organ was calculated according to Equation 4, where A (t) is the activity of each organ at time t: For this purpose, data points representing the non-decay corrected percentage of the injected dose were created. A linear approximation was applied between the two experimental points of time. The curves were extrapolated to infinity by fitting the tail of each curve to a mono-exponential curve with an exponential coefficient equal to the physical decay constant of ^68Ga. The accumulated activity in animals was calculated by computing the area under the curves, extrapolated to the accumulated activity in human organs, using a method proposed by Sparks et al. (Equation 5) and the standard mean weight of each human organ ([21], [22], [23]): The absorbed dose in human organs was calculated by the Radiation Absorbed Dose Assessment Resource (RADAR) formalism, based on the biodistribution data in rats ([22]): In the equation above, ni is the number of radiations with energy E emitted per nuclear transition, Ei is the energy per radiation (MeV), Qi is the fraction of emitted energy absorbed by the target, m is the mass of the target region (kg) and k is the proportionality constant [drawing 8] DF represents the physical decay characteristics of the radionuclide, the range of emitted radiations and the organ size and configuration, expressed in mGy/MBq.s ([24]). In this study, DF values were obtained from OLINDA/EXM software ([22]). The effective absorbed dose in each organ was calculated, using the following formula: […] where HT is the equivalent absorbed dose in each organ and WT is the tissue-weighing factor, which represents a subjective balance between different stochastic health risks ([25]). WT was obtained from the International Commission on Radiological Protection (ICRP) publication 103 ([26]).

in vivo = conditions: male, Syrian, rat, iv, 5.55 MBq, total radioactivity, Percentage of injected dose per gram (%ID/g)
Method: (§1) The total amount of radioactivity injected in each animal was measured by counting the 1 mL syringe before and after the injection in a dose calibrator with fixed geometry. The biodistribution of the solution among tissues was determined by sacrificing four rats at each selected time interval (15, 30, 60 and 120 min) after injection, based on animal care protocols.
(§2) Blood samples were rapidly taken after animal sacrifice. The tissues (heart, kidneys, spleen, stomach, intestine, lung, liver, skin, bone, muscle, thyroid, adrenal glands, salivary gland and pancreas) were weighed and rinsed with normal saline and their activities were determined, using a p-type coaxial HPGe detector, coupled with a multi-channel analyzer, based on Equation 1 ([20]):
(§3) The percentage of the injected dose per gram (%ID/g) for different organs was calculated by dividing the amount of activity in each tissue (A) to the decay-corrected injected activity and the mass of each organ. Four rats were sacrificed at each time interval. All values were expressed as mean ± standard deviation and the data were compared, using student’s t-test.

[2] = cited from earlier work
Method: In this regard, in a study by Ugur et al., the absorbed dose of kidneys was calculated to be 1090 mGy/MBq, based on biodistribution studies on AR42J rat pancreatic tumors ([2]), whereas an absorbed dose of 0.082 mGy/MBq was reported in kidneys of patients with disseminated neuroendocrine tumors ([37]). However, the absorbed dose of the pancreas as a somatostatin receptor-positive organ was not evaluated in previous research. || As mentioned earlier, the dose delivered to the pancreas has not been evaluated in previous literature. […] On the other hand, the absorbed dose of adrenal glands was somewhat lower than the value reported in the mentioned study, while being in great accordance with the absorbed dose of liver after ^68Ga-DOTATATE injection (0.015 mGy/MBq) in a study by Walker et al. ([41]). || In the present study, the effective absorbed dose was calculated at 0.026 mSv/MBq, which was higher than the value reported by Sandstrom and colleagues (0.021 mSv/MBq). The lower effective absorbed dose in the mentioned study corresponded to lower organ consideration for dosimetric calculations, compared to the present study. Finally, the dose received by critical organs was well within the acceptable range for diagnostic nuclear medicine procedures ([31], [42]).

[3] = Biodistribution in Syrian rats after intravenous injection; conditions: male Syrian rats; for Percentage of injected dose per gram (%ID/g), Blood / Percentage of injected dose per gram (%ID/g), Bone / Percentage of injected dose per gram (%ID/g), Intestine / Percentage of injected dose per gram (%ID/g), Kidneys / Percentage of injected dose per gram (%ID/g), Liver / Percentage of injected dose per gram (%ID/g), Spleen / Percentage of injected dose per gram (%ID/g), Stomach: 5.55 MBq i.v. tail vein, mean ± SD, n = 4
Method: as §1, §2, §3

[4] = 5.55 MBq i.v., maximum over 15-120 min, time not stated

Question: For `C[C@@H](O)[C@@H]1NC(=O)[C@H](CCCCN)NC(=O)[C@@H](Cc2c[nH]c3ccccc23)NC(=O)[C@H](Cc2ccc(O)cc2)NC(=O)[C@@H](NC(=O)[C@@H](Cc2ccccc2)NC(=O)CN2CCN(CC(=O)O)CCN(CC(=O)O)CCN(CC(=O)O)CC2)CSSC[C@@H](C(=O)N[C@H](CO)[C@@H](C)O)NC1=O` [^68Ga-DOTATOC, Gallium-68 DOTA-DPhe^1-Tyr^3-Octreotide, metal not drawn], which Effective absorbed dose [1] is on record?
Answer: 0.026 mSv/MBq

Question: And the “Equivalent absorbed dose in humans, Adrenals” value [1]?
Answer: 0.010 mGy/MBq

Question: What about the “Equivalent absorbed dose in humans, Bone Surf” value [1] of the same compound?
Answer: 0.008 mGy/MBq

Question: What about the “Equivalent absorbed dose in humans, Heart” value [1] of the same compound?
Answer: 0.004 mGy/MBq

Question: What about the “Equivalent absorbed dose in humans, Kidneys” value [1] of the same compound?
Answer: 0.074 mGy/MBq

Question: What about the “Equivalent absorbed dose in humans, Liver” value [1] of the same compound?
Answer: 0.010 mGy/MBq

Question: What about the “Equivalent absorbed dose in humans, Lungs” value [1] of the same compound?
Answer: 0.001 mGy/MBq

Question: What about the “Equivalent absorbed dose in humans, Red Marrow” value [1] of the same compound?
Answer: 0.003 mGy/MBq

Question: And the “Equivalent absorbed dose in humans, Small Intestine” value [1]?
Answer: 0.008 mGy/MBq

Question: What about the “Equivalent absorbed dose in humans, Spleen” value [1] of the same compound?
Answer: 0.009 mGy/MBq

Question: And the “Equivalent absorbed dose in humans, Stomach” value [1]?
Answer: 0.003 mGy/MBq

Question: What about the “Equivalent absorbed dose in humans, Total Body” value [1] of the same compound?
Answer: 0.008 mGy/MBq

Question: And the tissue uptake at 0.25 h (in vivo; Adrenal)?
Answer: 0.91 ± 0.05 %ID/g

Question: What about the tissue uptake at 0.5 h (in vivo; Adrenal) of the same compound?
Answer: 0.75 ± 0.06 %ID/g

Question: And the tissue uptake at 1 h (in vivo; Adrenal)?
Answer: 0.6 ± 0.04 %ID/g

Question: What about the tissue uptake at 2 h (in vivo; Adrenal) of the same compound?
Answer: 0.44 ± 0.01 %ID/g

Question: And the tissue uptake at 0.25 h (in vivo; Blood)?
Answer: 4.51 ± 0.21 %ID/g

Question: And the tissue uptake at 0.5 h (in vivo; Blood)?
Answer: 1.98 ± 0.15 %ID/g

Question: What about the tissue uptake at 1 h (in vivo; Blood) of the same compound?
Answer: 1.53 ± 0.11 %ID/g

Question: And the tissue uptake at 0.25 h (in vivo; Bone)?
Answer: 0.95 ± 0.08 %ID/g

Question: And the tissue uptake at 0.5 h (in vivo; Bone)?
Answer: 0.58 ± 0.03 %ID/g

Question: And the tissue uptake at 2 h (in vivo; Bone)?
Answer: 0.05 %ID/g

Question: What about the tissue uptake at 0.25 h (in vivo; Heart) of the same compound?
Answer: 1.68 ± 0.08 %ID/g

Question: What about the tissue uptake at 0.5 h (in vivo; Heart) of the same compound?
Answer: 1.01 ± 0.07 %ID/g

Question: What about the tissue uptake at 1 h (in vivo; Heart) of the same compound?
Answer: 0.73 ± 0.07 %ID/g

Question: And the tissue uptake at 2 h (in vivo; Heart)?
Answer: 0.03 %ID/g

Question: And the tissue uptake at 0.25 h (in vivo; Intestine)?
Answer: 0.48 ± 0.06 %ID/g

Question: What about the tissue uptake at 0.5 h (in vivo; Intestine) of the same compound?
Answer: 0.56 ± 0.05 %ID/g

Question: And the tissue uptake at 1 h (in vivo; Intestine)?
Answer: 0.39 ± 0.04 %ID/g

Question: What about the tissue uptake at 2 h (in vivo; Intestine) of the same compound?
Answer: 0.38 ± 0.04 %ID/g

Question: What about the tissue uptake at 0.25 h (in vivo; Kidneys) of the same compound?
Answer: 11.9 ± 0.21 %ID/g

Question: What about the tissue uptake at 0.5 h (in vivo; Kidneys) of the same compound?
Answer: 8.99 ± 0.13 %ID/g

Question: What about the tissue uptake at 1 h (in vivo; Kidneys) of the same compound?
Answer: 8 ± 0.18 %ID/g

Question: What about the tissue uptake at 2 h (in vivo; Kidneys) of the same compound?
Answer: 2.51 ± 0.1 %ID/g

Question: And the tissue uptake at 0.25 h (in vivo; Liver)?
Answer: 0.79 ± 0.09 %ID/g

Question: What about the tissue uptake at 0.5 h (in vivo; Liver) of the same compound?
Answer: 0.58 ± 0.08 %ID/g

Question: And the tissue uptake at 1 h (in vivo; Liver)?
Answer: 0.46 ± 0.03 %ID/g

Question: What about the tissue uptake at 2 h (in vivo; Liver) of the same compound?
Answer: 0.2 %ID/g

Question: And the tissue uptake at 0.25 h (in vivo; Lung)?
Answer: 0.35 ± 0.06 %ID/g

Question: And the tissue uptake at 1 h (in vivo; Lung)?
Answer: 0.13 ± 0.01 %ID/g

Question: And the tissue uptake at 2 h (in vivo; Lung)?
Answer: 0.02 %ID/g

Question: And the tissue uptake at 0.25 h (in vivo; Muscle)?
Answer: 0.4 ± 0.05 %ID/g

Question: And the tissue uptake at 2 h (in vivo; Muscle)?
Answer: 0.02 %ID/g

Question: What about the tissue uptake at 0.25 h (in vivo; Pancreas) of the same compound?
Answer: 12.8 ± 0.28 %ID/g

Question: What about the tissue uptake at 0.5 h (in vivo; Pancreas) of the same compound?
Answer: 9.55 ± 0.18 %ID/g

Question: What about the tissue uptake at 1 h (in vivo; Pancreas) of the same compound?
Answer: 6.62 ± 0.22 %ID/g

Question: What about the tissue uptake at 2 h (in vivo; Pancreas) of the same compound?
Answer: 5.31 ± 0.15 %ID/g

Question: What about the tissue uptake at 0.25 h (in vivo; Salivary gland) of the same compound?
Answer: 1.22 ± 0.1 %ID/g

Question: And the tissue uptake at 0.5 h (in vivo; Salivary gland)?
Answer: 0.77 ± 0.04 %ID/g

Question: What about the tissue uptake at 1 h (in vivo; Salivary gland) of the same compound?
Answer: 0.54 ± 0.03 %ID/g

Question: What about the tissue uptake at 1 h (in vivo; Skin) of the same compound?
Answer: 0.08 %ID/g

Question: What about the tissue uptake at 2 h (in vivo; Skin) of the same compound?
Answer: 0.03 %ID/g

Question: What about the tissue uptake at 0.25 h (in vivo; Spleen) of the same compound?
Answer: 0.38 ± 0.04 %ID/g

Question: What about the tissue uptake at 0.5 h (in vivo; Spleen) of the same compound?
Answer: 0.93 ± 0.07 %ID/g

Question: What about the tissue uptake at 1 h (in vivo; Spleen) of the same compound?
Answer: 0.16 ± 0.02 %ID/g

Question: What about the tissue uptake at 2 h (in vivo; Stomach) of the same compound?
Answer: 0.17 ± 0.02 %ID/g

Question: What about the tissue uptake at 1 h (in vivo; Thyroid) of the same compound?
Answer: 0.16 ± 0.04 %ID/g

Question: What about the “Absorbed dose of kidneys” value [2] of the same compound?
Answer: 0.082 mGy/MBq

Question: What about the Effective absorbed dose [2] of the same compound?
Answer: 0.021 mSv/MBq

Question: Which results are given for `[Cl][68Ga]([Cl])[Cl]` [^68GaCl3]?
Answer: Percentage of injected dose per gram (%ID/g), Blood ([3]; 15 min after injection): 3.18±0.17 %ID/g; Percentage of injected dose per gram (%ID/g), Bone ([3]; 15 min after injection): 0.56±0.06 %ID/g; Percentage of injected dose per gram (%ID/g), Intestine ([3]; 15 min after injection): 0.71±0.06 %ID/g; Percentage of injected dose per gram (%ID/g), Kidneys ([3]; 15 min after injection): 0.70±0.09 %ID/g; Percentage of injected dose per gram (%ID/g), Liver ([3]; 15 min after injection): 0.91±0.02 %ID/g; Percentage of injected dose per gram (%ID/g), Spleen ([3]; 15 min after injection): 0.51±0.09 %ID/g; Percentage of injected dose per gram (%ID/g), Stomach ([3]; 15 min after injection): 0.41±0.11 %ID/g; Percentage of injected dose per gram (%ID/g), Blood ([3]; 30 min after injection): 2.98±0.12 %ID/g; Percentage of injected dose per gram (%ID/g), Bone ([3]; 30 min after injection): 0.91±0.10 %ID/g; Percentage of injected dose per gram (%ID/g), Intestine ([3]; 30 min after injection): 0.82±0.08 %ID/g; Percentage of injected dose per gram (%ID/g), Kidneys ([3]; 30 min after injection): 0.41±0.10 %ID/g; Percentage of injected dose per gram (%ID/g), Liver ([3]; 30 min after injection): 1.50±0.12 %ID/g; Percentage of injected dose per gram (%ID/g), Spleen ([3]; 30 min after injection): 0.70±0.06 %ID/g; Percentage of injected dose per gram (%ID/g), Stomach ([3]; 30 min after injection): 0.56±0.07 %ID/g; Percentage of injected dose per gram (%ID/g), Blood ([3]; 60 min after injection): 2.53±0.11 %ID/g; Percentage of injected dose per gram (%ID/g), Bone ([3]; 60 min after injection): 1.20±0.11 %ID/g; Percentage of injected dose per gram (%ID/g), Intestine ([3]; 60 min after injection): 0.89±0.05 %ID/g; Percentage of injected dose per gram (%ID/g), Kidneys ([3]; 60 min after injection): 1.42±0.12 %ID/g; Percentage of injected dose per gram (%ID/g), Liver ([3]; 60 min after injection): 0.78±0.08 %ID/g; Percentage of injected dose per gram (%ID/g), Spleen ([3]; 60 min after injection): 1.03±0.10 %ID/g; Percentage of injected dose per gram (%ID/g), Stomach ([3]; 60 min after injection): 1.21±0.09 %ID/g; Percentage of injected dose per gram (%ID/g), Blood ([3]; 120 min after injection): 2.44±0.14 %ID/g; Percentage of injected dose per gram (%ID/g), Bone ([3]; 120 min after injection): 1.05±0.09 %ID/g; Percentage of injected dose per gram (%ID/g), Intestine ([3]; 120 min after injection): 0.61±0.07 %ID/g; Percentage of injected dose per gram (%ID/g), Kidneys ([3]; 120 min after injection): 0.91±0.08 %ID/g; Percentage of injected dose per gram (%ID/g), Liver ([3]; 120 min after injection): 0.60±0.05 %ID/g; Percentage of injected dose per gram (%ID/g), Spleen ([3]; 120 min after injection): 1.43±0.12 %ID/g; Percentage of injected dose per gram (%ID/g), Stomach ([3]; 120 min after injection): 1.54±0.14 %ID/g; Activity content in the bone, maximum value [3, 4]: 1.20 %ID/g; Activity content in the stomach, maximum value [3, 4]: 1.54 %ID/g

Reference: paper PMC4937676 (Asia Oceania Journal of Nuclear Medicine and Biology, 2016)
